{"source": "paper PMC12450071", "target": "JUNV GP1 (receptor-binding domain), subunit within the GPC on PV membranes (Junin virus strain MC2)", "assay": "cryo-EM structure", "data": [{"substance": "JUNV GP1 (receptor-binding domain), subunit within the GPC on PV membranes (domain or fragment)", "values": [{"measurement": "stoichiometry N", "result": 3}]}]}
